Assay results from US20170173114A1, “METHODS AND COMPOSITIONS FOR INDUCTION OF UCP1 EXPRESSION” (Joslin Diabetes Center, Inc., priority 2014, published 2017).
Entries after “also recorded” stand apart in the source; their conditions may differ.

Legend:
[1] = Insulin tolerance test in Chow or high fat diet mice; format: in vivo, C57BL6 mice; settings: Chow or HFD mice, 0.5 mg/kg FGF6 s.c. and 1.5 U insulin per kg
Description: In addition to testing the impact of FGF6 on glucose tolerance, an insulin tolerance test was also performed using Chow fed and Obese (HFD) mice. Animals were fasted for two hours before receiving an intraperitoneal dose of 1.5 IU of recombinant human insulin (Humalog; Eli Lilly and Company, Indianapolis, Ind.). Blood samples were collected from the tail vein for measurement of blood glucose levels using a glucometer before and 15, 30, and 60 min after injections of FGF6 and the buffer control.

UCP1 [2] = assay: UCP1 mRNA expression in SVF cells from interscapular brown adipose tissue (BAT-SVF); format: cell-based, C57BL/6 mice; settings: growth media, 3 days; vs control
Description: (§1) Eight 6-week old C57BL/6 male mice were sacrificed. Interscapular BAT and axillary subcutaneous WAT were removed, minced and digested with 1 mg/ml collagenase for 45 minutes at 37° C. in DMEM/F12 media, containing 1% BSA and antibiotics. Digested tissues were filtered through sterile 150 μm nylon mesh and centrifuged at 250×g for 5 minutes. The floating fractions consisting of adipocytes were discarded and the pellets representing the SVF were then resuspended in erythrocyte lysis buffer (154 mM NH4Cl, 10 mM KHCO3, 0.1 mM EDTA) for 10 minutes to remove red blood cells. The cells were further centrifuged at 500×g for 5 minutes, plated at 8×10^5 cells/well of a 24-well plate and grown at 37° C. in DMEM/F12 supplemented with 10% FBS at 37° C.
(§2) To determine if FGF6 treatment of primary adipose progenitors could also increase UCP1 expression as observed in Example 1, stromo-vascular fraction (SVF) cells, which comprise adipocyte progenitors, were isolated from interscapular brown adipose tissue (BAT-SVF) and subcutaneous white adipose tissue (SQ-SVF). SVF cells were subsequently treated with FGF6 or FGF21 in growth media (DMEM+10% FBS) for 3 days, followed by determination of UCP1 expression. As described in FIGS. 9A and 9B, FGF21 treatment had little effect on UCP1 mRNA expression in either type of SVF cells, as compared to the control. […]

UCP1 [3] = assay: UCP1 mRNA expression in SVF cells from subcutaneous white adipose tissue (SQ-SVF); format: cell-based, C57BL/6 mice; settings: growth media, 3 days; vs control
Description: as §1, §2

PTGS2 (COX2) = assay: PTGS2 mRNA / COX2 protein expression in WT-1 brown preadipocytes; format: cell-based, murine
Description: Total RNA was isolated with QIAzol lysis reagent (Qiagen, Valencia, Calif.) and purified by RNeasy Mini columns (Qiagen) following the manufacture's instructions. cDNA was prepared from total RNA using the Advantage RT-PCR kit (BD Biosciences, Palo Alto, Calif.) according to manufacturer's instructions. Diluted cDNA was used in a PCR reaction with SYBR Green Master Mix (Applied Biosystems, Foster City, Calif.) and primers specifically designed for detection of the gene of interest. PCR reactions were run in duplicate for each sample and quantitated in the ABI Sequence Detection System (Applied Biosystems). Data were expressed as arbitrary units after normalization to levels of expression of internal controls for each sample. Sequences of primers for specific genes are each obtained from the published literature or designed using publically available gene sequence databases. Unless otherwise indicated, gene expression data described in the examples below was obtained using QPCR.
Cells were harvested in lysis buffer (50 mM HEPES, 137 mM NaCl, 1 mM MgCl2, 1 mM CaCl2, 10 mM Na2P2O7, 10 mM NaF, 2 mM EDTA, 10% glycerol, 1% Igepal CA-630, 2 mM vanadate, 10 μg/ml of leupeptin, 10 μg/ml of aprotinin, 2 mM phenylmethylsulfonyl fluoride; pH 7.4). After lysis, lysates were clarified by centrifugation at 12,000×g for 20 min at 4° C., the amount of protein in the supernatants was determined by the Bradford Protein Assay (Bio-Rad Laboratories, Hercules, Calif.). Proteins were directly solubilized in Laemmli sample buffer. Equal amounts of lysates were separated by sodium dodecyl sulfate-polyacrylamide gel electrophoresis and transferred to Immobolin-P membranes. Membranes were blocked overnight at 4° C. and incubated with the indicated antibody for 2 hours at room temperature. Specifically bound primary antibodies were detected with peroxidase-coupled secondary antibody and enhanced chemiluminescence (ECL, Amersham Biosciences, Piscataway, N.J.).
To determine if FGF4, FGF5, FGF6, FGF10, FGF16, FGF17, FGF18 or FGF20 induced either UCP1 mRNA or PTGS2 mRNA expression, murine brown preadipocyte WT-1 cells (Tseng et al., Nat. Cell. Biol. (2005) 7(6):601-611) were grown in growth media (DMEM-high glucose+10% FBS) supplemented with FGF4, FGF5, FGF6, FGF10, FGF16, FGF17, FGF18, FGF20 or buffer (control) in combination with insulin (20 nM) and triidothyronine (T3, 1 nM) for three days. All FGFs were used at a dosage of 200 ng/mL. mRNA was isolated and UCP1 and PTGS2 gene expression levels were evaluated by quantitative reverse transcription polymerase chain reaction (Q-RT-PCR) analysis. All experiments were performed triplicate and the data are presented as mean+/−SEM.
To determine if FGF1 or FGF10 induce UCP1 mRNA expression or PTGS2 mRNA expression, murine brown preadipocyte WT-1 cells (Tseng et al., Nat. Cell. Biol. (2005) 7(6):601-611) were grown in growth media (DMEM-high glucose+10% FBS) supplemented with FGF1, FGF10 or vehicle (control) in combination with insulin (20 nM) and triidothyronine (T3, 1 nM) for three days. FGF1 and FGF10 were used at a dosage of 50 ng/mL, 100 ng/mL or 300 ng/mL. mRNA was isolated and UCP1 and PTGS2 expression levels were evaluated by quantitative reverse transcription polymerase chain reaction (Q-RT-PCR) analysis. All experiments were performed triplicate and the data are presented as mean+/−SEM.
To test the role of specific prostaglandins (PGs) in activating UCP1 expression, WT-1 brown adipocytes were pretreated with PGE2, PGI2 and FGF6 for 24 hours. mRNA expression levels of UCP1, PTGS2, LDHA, PDK1 and PKM2 were then measured.

B1: FGF6: fibroblast growth factor 6; recombinant human FGF from R&D Systems, or mouse FGF6 cDNA overexpressed by lentiviral vector (protein)
chain: KRQRRLYCNVGIGFHLQVLPDGRISGTHEENPYSLLEISTVERGVVSLFGVRSALFVAMNSKGRLYATPSFQEECKFRETLLPNNYNAYESDLYQGTYIALSKYGRVKRGSKVSPIMTVTHFLPRI
- glucose levels in insulin tolerance test (insulin sensitivity) [1]: lower levels of glucose; also recorded: enhanced insulin sensitivity
- increase of UCP1 mRNA expression in BAT-SVF (UCP1 [2]): 4 fold
- increase in UCP1 mRNA expression in SVF from subcutaneous WAT (UCP1 [3]): ~200 fold
- PTGS2 mRNA expression relative to the control (PTGS2 (COX2); 200 ng/mL with insulin and T3, three days): increased
- PTGS2 mRNA expression (PTGS2 (COX2); 50-300 ng/mL, three days): induced
- COX2 protein expression, Western blot (PTGS2 (COX2); 50-300 ng/mL, three days, dose-dependent): increased
- PTGS2 mRNA expression (PTGS2 (COX2); WT-1, 24 hours, vs vehicle): significantly induced
